For assay [1], the target named is T1, human transferrin receptor (TfR) on hCMEC/D3 brain endothelial cells (human, UniProt P02786 1-760).
T1 construct: whole, on cells; also called blood brain barrier receptor
Description: hCMEC/D3 transwell assay, IgG ELISA of cell lysates and media. For orientation: An ELISA detects its analyte on a solid surface through an enzyme-linked reagent.
Description: We used brain endothelial cells (hCMEC/D3) to investigate cell binding and transcytosis of the shuttle modules as reported herein. […] To investigate cell binding and transcytosis in hCMEC/D3, hCMEC/D3 cells cultured on filter inserts were incubated apically with the bispecific antibody or parent antibody (without hapten-binding scFvs as controls) for 1 h at 37° C. Cell monolayers were washed at RT in serum-free medium apically (400 μl) and basolaterally (1600 μl) three times for 3-5 min. each. All wash volumes were collected to monitor efficiency of removal of the unbound ligand or antibody. Pre-warmed medium was added to the apical chamber and the filters transferred to a fresh 12 well plate (blocked overnight with PBS containing 1% BSA) containing 1600 μl pre-warmed medium. At this point, cells on some of the filters were lysed in 500 μl RIPA buffer (Sigma, Munich, Germany, #R0278) in order to determine specific uptakes. The remaining filters were incubated at 37° C., and samples of cells and of basolateral and apical media were collected at various time points to determine apical and/or basolateral release. The content of antibody in the samples was quantified using a highly sensitive IgG ELISA.

Assay [2] deals with T1, human transferrin receptor (TfR) on …. Description: FACS on hCMEC/D3 cells, anti-IgG-PE detection, Dig-Cy5 as payload.
Description: To evaluate this functionality of the hapten-binding bispecific antibodies as reported herein, simultaneous cell surface and payload binding was addressed by FACS analyses. For these analyses, cell binding of the blood brain barrier-shuttle module (=bispecific antibody) was detected by phytoerythrin-labeled IgG recognizing secondary antibodies. Simultaneous payload binding was detected by application of a haptenylated fluorescent payload (digoxigenylated Cy5; DIG-Cy5 (see above)).

Positions count from the first letter of the chain named.

T1 sequence (P02786 whole entry): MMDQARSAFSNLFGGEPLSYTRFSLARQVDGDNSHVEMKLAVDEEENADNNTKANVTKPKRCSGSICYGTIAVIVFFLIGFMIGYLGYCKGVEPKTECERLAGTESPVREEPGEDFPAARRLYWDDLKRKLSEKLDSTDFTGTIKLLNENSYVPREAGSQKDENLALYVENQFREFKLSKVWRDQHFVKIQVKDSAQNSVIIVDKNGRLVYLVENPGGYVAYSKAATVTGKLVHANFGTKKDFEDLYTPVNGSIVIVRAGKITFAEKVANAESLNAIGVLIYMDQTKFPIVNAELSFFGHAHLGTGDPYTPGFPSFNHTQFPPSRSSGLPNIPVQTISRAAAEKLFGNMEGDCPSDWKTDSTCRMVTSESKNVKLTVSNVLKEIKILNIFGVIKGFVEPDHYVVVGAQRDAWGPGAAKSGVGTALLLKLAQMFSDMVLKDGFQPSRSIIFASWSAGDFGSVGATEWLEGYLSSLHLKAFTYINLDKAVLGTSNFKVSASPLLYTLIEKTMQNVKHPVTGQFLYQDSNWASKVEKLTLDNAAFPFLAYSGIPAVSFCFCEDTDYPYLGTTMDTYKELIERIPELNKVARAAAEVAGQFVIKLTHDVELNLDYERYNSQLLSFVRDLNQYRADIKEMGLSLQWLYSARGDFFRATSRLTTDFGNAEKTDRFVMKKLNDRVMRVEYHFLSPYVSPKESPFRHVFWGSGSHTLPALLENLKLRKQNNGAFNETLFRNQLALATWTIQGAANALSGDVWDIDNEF

B1: anti-TfR1 antibody (high affinity bivalent anti-TfR antibody, parent antibody without hapten-binding scFvs) (antibody, human IgG1, kappa, V domains shown)
VH: EVQLQQSGPELVKPGASMKISCKASGYSFTGYTMNWVKQSHGENLEWIGRINPHNGGTDYNQKFKDKAPLTVDKSSNTAYMELLSLTSEDSAVYYCARGYYYYSLDYWGQGTSVTVSS
VL: QIVLTQSPAIMSASPGEKVTMTCSASSSIRYIHWYQQRPGTSPKRWIYDTSNLASGVPARFSGSGSGTSYSLTISSMEAEDAATYYCHQRNSYPWTFGGGTRLEIKR
notes: also called antibody TfR1
With B1, the binding result in assay [1] is given as “binds”.

B2: anti-TfR2 antibody (bivalent anti-TfR antibody with reduced affinity, parent antibody without hapten-binding scFvs) (antibody, human IgG1, kappa, V domains shown)
VH: EVQLQQSGPELVKPGASVKMSCKASGYTFTSYVMHWVKQKPGQGLEWIGYVNPYNDDTKYNEKFRGKATLTSDKSSSTAYMELSSLTSEDSAVYYCARSYYYYSMDNWGQGTSVTVSS
VL: B1 VL with M21V, I32M, R38K, N52E, S75N, N91S, W95F, R102K
notes: also called antibody TfR2
Consider B2, for which the binding result in assay [1] is given as “binds”.

B3: TfR1-Dig bispecific antibody (digoxigenylated payload binding blood brain barrier-shuttle module that binds TfR with high affinity) (bispecific antibody, human IgG1, kappa)
light: QIVLTQSPAIMSASPGEKVTMTCSASSSIRYIHWYQQRPGTSPKRWIYDTSNLASGVPARFSGSGSGTSYSLTISSMEAEDAATYYCHQRNSYPWTFGGGTRLEIKRTVAAPSVFIFPPSDEQLKSGTASVVCLLNNFYPREAKVQWKVDNALQSGNSQESVTEQDSKDSTYSLSSTLTLSKADYEKHKVYACEVTHQGLSSPVTKSFNRGEC
heavy: not shown
notes: also called anti-TfR1 antibody-Dig
B3: the binding result in assay [2] is reported as “binds”.

B4: TfR2-Dig bispecific antibody (digoxigenylated payload binding blood brain barrier-shuttle module that binds TfR with reduced affinity) (bispecific antibody, human IgG1, kappa)
light: B3 light with M21V, I32M, R38K, N52E, S75N, N91S, W95F, R102K
heavy: not shown
notes: also called anti-TfR2-antibody Dig
With B4, in assay [2], the binding result is reported as “binds”.

B5: TfR2-Bio bispecific antibody (biotinylated payload binding blood brain barrier-shuttle module that binds TfR with reduced affinity) (bispecific antibody, human IgG1, kappa)
light: B3 light with M21V, I32M, R38K, N52E, S75N, N91S, W95F, R102K
heavy: not shown
notes: also called anti-TfR2-Bio
As to B5, the binding result in assay [1] was “binds”.

B6: TfR1-Bio bispecific antibody (biotinylated payload binding blood brain barrier-shuttle module that binds TfR with high affinity) (bispecific antibody, human IgG1, kappa)
light: B3 light
heavy: not shown
notes: also called anti-TfR1 antibody-Bio
As to B6, the binding result in assay [1] is recorded as “binds”.

(Values after patent US20210069338A1 (published 2021).)
